Source: publication PMC2377106 (2003)

T1: VEGFR2(ΔKD)m -20-809 (Homo sapiens, UniProt P35968)
T1 chain: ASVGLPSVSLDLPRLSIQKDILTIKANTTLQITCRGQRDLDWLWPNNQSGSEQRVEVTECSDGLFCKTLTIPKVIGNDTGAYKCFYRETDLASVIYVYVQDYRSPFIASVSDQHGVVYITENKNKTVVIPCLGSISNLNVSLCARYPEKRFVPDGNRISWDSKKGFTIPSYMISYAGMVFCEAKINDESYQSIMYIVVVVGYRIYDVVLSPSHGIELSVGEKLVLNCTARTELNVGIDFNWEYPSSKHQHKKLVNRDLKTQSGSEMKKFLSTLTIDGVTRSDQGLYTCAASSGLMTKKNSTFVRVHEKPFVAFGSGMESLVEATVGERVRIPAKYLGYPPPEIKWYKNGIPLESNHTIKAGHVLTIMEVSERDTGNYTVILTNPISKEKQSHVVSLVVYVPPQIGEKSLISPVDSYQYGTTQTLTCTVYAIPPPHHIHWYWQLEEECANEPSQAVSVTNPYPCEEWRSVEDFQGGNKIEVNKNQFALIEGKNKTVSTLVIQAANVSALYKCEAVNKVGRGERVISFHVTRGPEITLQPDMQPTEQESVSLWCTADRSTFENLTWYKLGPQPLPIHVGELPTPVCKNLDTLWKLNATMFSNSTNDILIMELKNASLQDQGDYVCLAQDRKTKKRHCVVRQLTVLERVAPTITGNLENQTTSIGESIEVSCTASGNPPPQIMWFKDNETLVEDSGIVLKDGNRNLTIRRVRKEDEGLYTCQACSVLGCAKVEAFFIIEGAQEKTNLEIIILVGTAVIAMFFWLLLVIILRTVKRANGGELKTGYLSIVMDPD

B1: VEGF115-CPG2(Q)3-H6 1-115 (protein)
chain: MTDRQTDTAPSPSYHLLPGRRRTVDAAASRGQGPEPAPGGGVEGVGARGVALKLFVQLLGCSRFGGAVVRAGEAEPSGAARSASSGREEPQPEEGEEEEEKEEERGPQWRLGARK
modifications: fusion to N-terminus of CPG2(Q)3 (aa 23-415), H6 tag
B2: CPG2(Q)3-VEGF109-H6 1-109 (protein)
chain: MTDRQTDTAPSPSYHLLPGRRRTVDAAASRGQGPEPAPGGGVEGVGARGVALKLFVQLLGCSRFGGAVVRAGEAEPSGAARSASSGREEPQPEEGEEEEEKEEERGPQW
modifications: fusion to C-terminus of CPG2(Q)3 (aa 23-415), H6 tag
B3: VEGF161-CPG2(Q)3-H6 1-161 (protein)
chain: MTDRQTDTAPSPSYHLLPGRRRTVDAAASRGQGPEPAPGGGVEGVGARGVALKLFVQLLGCSRFGGAVVRAGEAEPSGAARSASSGREEPQPEEGEEEEEKEEERGPQWRLGARKPGSWTGEAAVCADSAPAARAPQALARASGRGGRVARRGAEESGPPH
modifications: fusion to N-terminus of CPG2(Q)3 (aa 23-415), H6 tag
B4: [125I]VEGF (protein)
chain: MTDRQTDTAPSPSYHLLPGRRRTVDAAASRGQGPEPAPGGGVEGVGARGVALKLFVQLLGCSRFGGAVVRAGEAEPSGAARSASSGREEPQPEEGEEEEEKEEERGPQWRLGARKPGSWTGEAAVCADSAPAARAPQALARASGRGGRVARRGAEESGPPHSPSRRGSASRAGPGRASETMNFLLSWVHWSLALLLYLHHAKWSQAAPMAEGGGQNHHEVVKFMDVYQRSYCHPIETLVDIFQEYPDEIEYIFKPSCVPLMRCGGCCNDEGLECVPTEESNITMQIMRIKPHQGQHIGEMSFLQHNKCECRPKKDRARQEKKSVRGKGKGQKRKRKKSRYKSWSVPCGPCSERRKHLFVQDPQTCKCSCKNTDSRCKARQLELNERTCRCDKPRR
modifications: 125I-labelled VEGF

Tests used:
VEGFR2(ΔKD)m -20-809 [1] = target: T1, VEGFR2(ΔKD)m -20-809; experiment: competition RIA
VEGFR2(ΔKD)m -20-809 [2] = target: T1, VEGFR2(ΔKD)m -20-809; experiment: ELISA
VEGFR2(ΔKD)m -20-809 [3] = target: T1, VEGFR2(ΔKD)m -20-809; experiment: solid-phase radioligand binding

Binder	Kd (VEGFR2(ΔKD)m -20-809 [1])	Kd (VEGFR2(ΔKD)m -20-809 [2])	Kd (VEGFR2(ΔKD)m -20-809 [3])
B1	9.6 nM	0.51 nM	
B2	1.3 nM	0.75 nM	
B3	3.3 nM	1.06 nM	
B4			0.51 nM
